Results published in US20230399394A1 (SUNSHINE GUOJIAN PHARMACEUTICAL SHANGHAI, published 2023).
Each block holds one binder with its values, some of them ahead of it.

Experiments:
Human IL-33-his [1] = molecular target: T1, Human IL-33-his (human, UniProt O95760 112-270, biotinylated with EZ-Link NHS-Biotin where used as IL-33-his-biotin); test: competition ELISA: antibody mixed with IL-33-his-biotin, added to an ST2-Fc-coated plate, HRP-streptavidin; blocked ligand ST2-Fc
T1 construct: Used plain (SPR, cell assays) and biotinylated (ELISA); also called IL-33-his-biotin
T1 sequence: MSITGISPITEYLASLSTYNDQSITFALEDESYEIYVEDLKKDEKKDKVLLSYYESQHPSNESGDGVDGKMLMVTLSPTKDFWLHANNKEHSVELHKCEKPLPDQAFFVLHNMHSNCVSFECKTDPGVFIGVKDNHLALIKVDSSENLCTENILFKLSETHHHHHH
Description: ST2-Fc protein was diluted to 1 μg/mL with ELISA coating solution to coat ELISA plate with 100 μL/well. The plate was placed in a wet box at 4° C. for 16 h for coating. The ELISA plate was washed 3 times with PBST, and then was blocked with 2% BSA prepared in PBS at 200 μL/well at room temperature for 2 h. The plate was washed once with PBST, and was patted dry to remove the excess blocking solution. Each monoclonal antibody was diluted with 1% BSA prepared in PBST in a 3-fold gradient. The highest concentration of antibody was 10 μg/mL, and the antibody was diluted for 11 gradients. The diluted antibody was mixed 1:1 with 10 ng/ml IL-33-his-biotin, and then the mixture was added into the ELISA well at 100 μL/well. The plate was incubated at room temperature for 1 h. Each concentration was added to duplicate wells in parallel (maximum final concentration of antibody was […], final concentration of IL-33-his-biotin was 5 ng/mL). Unbound or non-specifically bound primary antibodies were washed out. […] 2M H₂SO₄ was added with 70 μL/well to terminate development, and the absorbance was measured at 450 nm on a multifunctional microplate reader. The data were analyzed.

Human IL-33-his [2] = molecular target: T1, Human IL-33-his; test: competition ELISA, antibody mixed with IL-33-his-biotin, ST2-Fc on plate; competitor ST2-Fc
Description: ST2-Fc protein was diluted to 1 μg/mL with ELISA coating solution to coat ELISA plate with 100 μL/well. The plate was placed in a wet box at 4° C. for 16 h for coating. The ELISA plate was washed 3 times with PBST, and then was blocked with 2% BSA prepared in PBS at 200 μL/well at room temperature for 2 h. The plate was washed once with PBST, and was patted dry to remove the excess blocking solution. Each monoclonal antibody was diluted with 1% BSA prepared in PBST in a 3-fold gradient. The highest concentration of antibody was 10 μg/mL, and the antibody was diluted for 11 gradients. The diluted antibody was mixed 1:1 with 10 ng/ml IL-33-his-biotin, and then the mixture was added into the ELISA well at 100 μL/well. The plate was incubated at room temperature for 1 h. Each concentration was added to duplicate wells in parallel (maximum final concentration of antibody was […], final concentration of IL-33-his-biotin was 5 ng/mL). Unbound or non-specifically bound primary antibodies were washed out. According to the instructions of the antibody, HRP labeled streptavidin secondary antibody was diluted to an appropriate concentration with antibody diluent solution, then it was added to ELISA plate with 100 μL/well, and was incubated at room temperature for 1 h. The ELISA plate was washed with PBST for 5 times, and was patted dry on absorbent paper to remove excess liquid. TMB developing solution was added with 100 μL/well for development to an appropriate degree. 2M H₂SO₄ was added with 70 μL/well to terminate development, and the absorbance was measured at 450 nm on a multifunctional microplate reader. The data were analyzed.

Human IL-33-his [3] = molecular target: T1, Human IL-33-his; test: ELISA, IL-33-his-biotin on streptavidin plate, anti-human Fc detection
Description: SA protein was diluted to 2 μg/mL to coat ELISA plate at 100 μL/well overnight at 4° C. The plate was washed with PBST (PBS containing 0.05% Tween20) for 3 times, and blocked with 2% BSA prepared in PBS at 200 μL/well, at room temperature for 2 h. After the plate was washed twice with PBST, IL-33-his-biotin protein was diluted to 1 μg/mL with 1% BSA prepared in PBST, and was added to ELISA plate at 100 μL/well. The plate was incubated at room temperature for 1 h, and each monoclonal antibody was diluted with 1% BSA prepared in PBST in a 3-fold gradient. The highest concentration of antibody was 10 μg/mL, and the antibody was diluted for 12 gradients. Each diluted monoclonal antibody was added to ELISA wells with 100 μL/well, and the plate was incubated at room temperature for 1 h. Each sample was added to duplicate wells in parallel. The plate was washed with PBST for 3 times, and HRP-anti human IgG Fc secondary antibody prepared with PBST was diluted at an appropriate ratio, and was added to ELISA wells at 100 μL/well. The plate was incubated at room temperature for 1 h. After washing with PBST for 3 times, TMB developing solution was added at 100 μL/well. When the development met expectations, 2M H₂SO₄ was added to terminate the chromogenic reaction at 70 μL/well. Each reaction solution was shaken uniformly and OD450 nm was read on a microplate reader. The data was analyzed and EC₅₀ was calculated.

Cynomolgus IL-33-his = molecular target: T2, Cynomolgus IL-33-his (cynomolgus, UniProt A0A2K5W3I1 112-269, biotinylated in the ELISA of Example 6); test: indirect ELISA, biotinylated cynomolgus IL-33-his on streptavidin plate
T2 construct: Bought protein; also called cynomolgus IL-33 protein; Cynomolgus monkeys IL-33
T2 sequence: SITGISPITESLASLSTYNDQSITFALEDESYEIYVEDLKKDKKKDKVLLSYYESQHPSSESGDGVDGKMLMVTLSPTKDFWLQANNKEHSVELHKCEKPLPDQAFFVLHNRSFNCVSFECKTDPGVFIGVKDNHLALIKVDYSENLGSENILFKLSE
Description: The binding ability of murine antibody to cynomolgus IL-33 was determined by indirect enzyme-linked immunosorbent assay (ELISA). The specific methods were as follows: The plate was pre-coated by biotin-avidin (SA) which was diluted in coating solution (50 mM carbonate coating buffer, pH 9.6) to 2 μg/ml at 4° C. overnight. The plate was blocked with 5% skim milk powder at 37° C. for 2 hours, and stored at −80° C. for later use. Biotinylated recombinant cynomolgus IL-33-his protein was diluted to 1 μg/ml in coating solution (50 mM carbonate coating buffer, pH 9.6) and was added at 100 μl/well to the pre-coated SA plate for 0.5 h at 37° C. After washing the plate with PBST for 3 times, the antibodies to be tested were diluted by gradient with 1% BSA buffer and added into the blocked plate with 100 μl/well, and incubated at 37° C. for 1 hour. The plate was washed with PBST for 3 times, and the HRP-labeled goat anti-mouse IgG was added and placed at 37° C. for 30 min. After washing the plate with PBST for 3 times, the plate was patted on the absorbent paper to remove residual droplets as far as possible. […] OD values were read at 450 nm on the microplate reader to analyze the binding ability of the antibody to the target antigen cynomolgus IL-33-his.

Human IL-33-his [4] = molecular target: T1, Human IL-33-his; test: indirect ELISA, biotinylated IL-33-his on streptavidin plate
Description: The binding ability of murine antibody to human IL-33 protein was determined by indirect enzyme-linked immunosorbent assay (ELISA). The specific methods were as follows: The plate was pre-coated with biotin-avidin (SA) which was diluted in coating solution (50 mM carbonate coating buffer, pH 9.6) to 2 μg/ml at 4° C. overnight, then the plate was blocked with 5% skim milk powder at 37° C. for 2 hours and stored at −80° C. for later use. Biotinylated recombinant human IL-33-his protein was diluted to 0.5 μg/ml in coating solution (50 mM carbonate coating buffer, pH 9.6) and was added at 100 μl/well to the pre-coated SA plate, 37° C., 0.5 h. After washing the plate with PBST for 3 times, the antibodies to be tested were diluted by gradient with 1% BSA buffer and added into the blocked plate at 100 μl/well, and incubated at 37° C. for 1 hour. The plate was washed with PBST for 3 times, and the HRP-labeled goat anti-mouse IgG was added and placed at 37° C. for 30 min. After washing the plate with PBST for 3 times, the plate was patted on the absorbent paper to remove residual droplets as far as possible. […] OD values were read at 450 nm on the microplate reader to analyze the binding ability of the antibodies to be tested to the target antigen human IL-33-his.

Human IL-33-his [5] = molecular target: T1, Human IL-33-his; test: cell-based or functional assay
Human IL-33-his [6] = molecular target: T1, Human IL-33-his; test: competition ELISA, antibody mixed with IL-33-his-biotin, ST2 on plate; competitor ST2
Description: ST2 is the only receptor for IL-33 that has been discovered so far. As a cytokine, IL-33 exerts its physiological function depending on ST2 signaling pathway, and the blocking activity of antibody can reflect the neutralizing activity thereof. The specific method was as follows: the plate was coated with 2 μg/ml ST2 PBS solution at 4° C. overnight; the plate was washed with PBST for 3 times, then the plated was blocked with 5% skim milk powder at 37° C. for 2 hours; the plate was washed with PBST for 3 times for later use. 20 ng/ml IL-33-his-biotin antigen diluted by 1% BSA was mixed with antibodies to be tested diluted by gradient with 1% BSA at 1:1 equal volume and incubated at 37° C. for […]. The mixture was added to a pre-coated ST2 plate and incubated at 37° C. for 1 h. The plate was washed with PBST for 3 times. HRP-labeled streptavidin secondary antibody was added at 1:8000 and incubated at 37° C. for 0.5 hours. After washing the plate with PBST for 3 times, the plate was patted on the absorbent paper to remove residual droplets as far as possible. 100 μl TMB was added to each well, and the plate was placed at room temperature (20±5° C.) for 5 minutes away from light; 50 μl 2M H₂SO₄ terminating solution was added to each well to terminate the substrate reaction. OD values were read at 450 nm on the microplate reader.

- IC50 (read off the curve) (Human IL-33-his [1]): ~6000 pM
- IC50 (Human IL-33-his [2]): 45200 pM
- EC50 (Human IL-33-his [3]): 127 pM
B1: 864F3-ch1 (antibody, human IgG4 S228P, kappa, V domains shown)
VH: QVQLKESGPGLVAPSQSLSITCTVSGFSLTNYGVHWVRLPPGKGLEWLGVIRAGGSSDYNSALMSRLNIRKDNSKSQVFLEMNSLQTADTAMYYCARDHYFSNSYGGSPYWGQGTLVTVSA
VL: DIQMTQSPASQSASLGESVTITCLASQTIATWLAWYQQKPGKSPQLLIYAATRLADGVPSRFSGSGSGTEFSFKISSLQAEDFVIYYCQQLYNTPYTFGGGTKLEIKR
notes: Chimeric: murine variable regions on human IgG4 (S228P) and human kappa constant regions; also called chimeric antibody 864F3-ch1

- EC50 (Cynomolgus IL-33-his): 40 pM
- EC50 (Human IL-33-his [4]): 140 pM
- IC50 of inhibition of IL-33-induced IL-6 expression in HUVEC cells (Human IL-33-his [5]): 1660 pM
- IC50 of inhibition of IL-33-induced IL-8 expression in HUVEC cells (Human IL-33-his [5]): 160 pM
- IC50 (Human IL-33-his [6]): 740 pM
B2: 871G1 (antibody, V domains shown)
VH: QVHLKESGPGLVAPSQSLSITCNVSGFSLSKYGVHWIRQTPGRGLDWLGVLRAGGTISYNSALMSRLSISEDISKSQVFLKMNDLQTDDSAIYFCARDHYYYSSFGGFASWGQGTLVTVSA
VL: DIQMTQSPASQSASLGESVTITCLASQTIGAWLAWYRQQPGKSPQLLIYAATRLADGVPSRFSGSGSGTKFSFKINNLQAEDFVIYYCQQLNSTPYTFGGGTRLEM
notes: Murine hybridoma antibody; also called murine antibody 871G1
